Measured values taken from US20260131011A1.
No end group written: not given here.

With VALDPIDISIELNKAKSDLEESKEWIRRSNQKLDSI (also: conjugated to cholesterol) [HPIV3_3004 (native) HR2 ligand conjugated to cholesterol (Peptide Conjugate 12)] the EC50 (hPIVC243) was greater than 5.29 µM, the EC50 (RSVA2) was 50 nM and the EC50 (RSVB18537) was less than 40 nM.
